# Test results from publication PMC12450071.
# Molecular target: JUNV GP1 (receptor-binding domain), subunit within the GPC on PV membranes (Junin virus strain MC2)
# Test: cryo-EM structure
substance,measurement,value
"JUNV GP1 (receptor-binding domain), subunit within the GPC on PV membranes (domain or fragment)",stoichiometry N,3
